The numbers were not newly measured in patent US20030175285A1, “Molecule of pharmaceutical interest comprising at its n-terminal a glutamic acid or a glutamine in the form of a physiologically acceptable strong acid” (priority 2000, published 2003), which cites them from elsewhere.

Ends that are not written are not given here.

The test system of data set [1] is osteoblasts and chondrocytes. The conditions noted are these: trifluoroacetate form.
The conditions of data set [2]: acetate form.
Data set [3] concerns melanoma. The following applies: acetate form, patients suffering from a melanoma.

For “Amylin: synthetic peptide in trifluoroacetate form (KCNTATCATQRLANFLVHSSNNFGAILSSTNVGSNTY; cysteine pairing not given here; also: trifluoroacetate salt; UniProt P10997 34-70, looked up)”, the “toxicity for cells in culture” value in data set [1] was “toxic”.

Calcitonin: the “toxicity for cells in culture” value in data set [1] is listed as “toxic”.

Regarding EVDPIGHLY [MAGE-3], the required storage temperature in data set [2] is −80 °C. Moreover, the clinical antitumor effect result in data set [3] is “tumor regression”.
